Reference: paper PMC3594540 (Nature structural & molecular biology, 2013)
Residue numbers refer to the chain shown, from its start.

Key:
[1] = target: T1, human PLCβ3 (residues 10–1234) (human, UniProt Q01970 10-1234); experiment: cell-based or functional assay
T1 sequence: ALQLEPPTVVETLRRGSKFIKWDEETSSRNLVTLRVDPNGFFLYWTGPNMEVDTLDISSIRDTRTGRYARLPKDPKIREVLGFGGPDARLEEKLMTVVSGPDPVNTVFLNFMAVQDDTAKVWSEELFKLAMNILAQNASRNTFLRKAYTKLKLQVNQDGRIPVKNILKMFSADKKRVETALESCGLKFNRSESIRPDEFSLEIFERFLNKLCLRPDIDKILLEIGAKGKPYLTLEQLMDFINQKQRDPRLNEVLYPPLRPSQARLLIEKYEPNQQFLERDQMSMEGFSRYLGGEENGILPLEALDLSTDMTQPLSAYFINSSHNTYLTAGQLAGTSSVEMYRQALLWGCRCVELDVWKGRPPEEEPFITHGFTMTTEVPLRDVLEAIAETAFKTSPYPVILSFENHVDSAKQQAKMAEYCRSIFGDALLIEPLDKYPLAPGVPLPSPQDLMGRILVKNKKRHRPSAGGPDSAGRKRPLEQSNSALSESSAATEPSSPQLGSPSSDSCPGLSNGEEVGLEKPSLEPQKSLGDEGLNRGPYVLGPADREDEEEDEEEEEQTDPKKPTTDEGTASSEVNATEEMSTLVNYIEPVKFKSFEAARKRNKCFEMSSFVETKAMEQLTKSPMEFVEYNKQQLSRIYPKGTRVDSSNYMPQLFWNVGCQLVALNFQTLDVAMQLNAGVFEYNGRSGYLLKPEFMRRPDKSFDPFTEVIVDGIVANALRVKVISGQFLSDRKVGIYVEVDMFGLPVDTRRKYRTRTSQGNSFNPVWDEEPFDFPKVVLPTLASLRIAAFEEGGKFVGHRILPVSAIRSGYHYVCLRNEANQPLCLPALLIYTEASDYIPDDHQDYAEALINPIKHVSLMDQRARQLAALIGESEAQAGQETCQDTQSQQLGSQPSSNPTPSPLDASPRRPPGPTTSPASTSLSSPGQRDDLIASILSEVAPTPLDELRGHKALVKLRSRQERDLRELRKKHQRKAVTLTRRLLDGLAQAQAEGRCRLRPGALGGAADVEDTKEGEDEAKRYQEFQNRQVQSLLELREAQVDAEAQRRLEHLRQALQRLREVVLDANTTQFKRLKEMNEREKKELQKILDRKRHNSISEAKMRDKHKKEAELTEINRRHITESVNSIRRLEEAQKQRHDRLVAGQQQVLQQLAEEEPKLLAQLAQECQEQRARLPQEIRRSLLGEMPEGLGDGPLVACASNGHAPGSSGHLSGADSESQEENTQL

[2] = target: T2, PLCβ3 I1129E V1133E I1136E triple mutant (human, UniProt Q01970); experiment: cell-based or functional assay
T2 chain: T1 sequence with I1120E, V1124E, I1127E

B1: murine Gαq (residues 7–359), biotinylated for bead binding (natural protein)
chain: MACCLSEEAKEARRINDEIERQLRRDKRDARRELKLLLLGTGESGKSTFIKQMRIIHGSGYSDEDKRGFTKLVYQNIFTAMQAMIRAMDTLKIPYKYEHNKAHAQLVREVDVEKVSAFENPYVDAIKSLWNDPGIQECYDRRREYQLSDSTKYYLNDLDRVADPSYLPTQQDVLRVRVPTTGIIEYPFDLQSVIFRMVDVGGQRSERRKWIHCFENVTSIMFLVALSEYDQVLVESDNENRMEESKALFRTIITYPWFQNSSVILFLNKKDLLEEKIMYSHLVDYFPEYDGPQRDAQAAREFILKMFVDLNPDSDKIIYSHFTCATDTENIRFVFAAVKDTILQLNLKEYNLV
**Q.** For B1, which “EC50 of Gαq-stimulated PIP2 hydrolysis ([3H]-IP3 release from liposomes)” value [1] is on record?
**A.** 120 nM

**Q.** What about the “Max specific activity of Gαq-stimulated PIP2 hydrolysis (liposomes)” value [1] of the same binder?
**A.** 2900 nmol IP3/min/nmol PLCβ3

**Q.** What about the “EC50 of Gαq-stimulated PIP2 hydrolysis ([3H]-IP3 release from liposomes)” value [2] of the same binder?
**A.** 280 nM

**Q.** What about the “Max specific activity of Gαq-stimulated PIP2 hydrolysis (liposomes)” value [2] of the same binder?
**A.** 1900 nmol IP3/min/nmol PLCβ3
